Assay results from the supplement of paper PMC9170038.

Test system: MS2 coat protein
Experiment: apparent KD of MS2 coat protein; designed switch direction (-1 OFF switch, 1 ON switch): -1; higher = weaker reporter binding
How it was run: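 RNA switches sharing common flanks were transcribed by stalled E. coli RNA polymerase on Illumina chips. A doubling series of SNAP-549-labelled MS2 coat protein, from 0.7 or 1.5 nM to 3 µM, was applied in Tris-HCl pH 7.5 buffer with KCl, MgCl2, BSA, DTT, tRNA and Tween-20. Each step lasted 0.8–1.5 h at the bottom of the series and 10–20 min at the top. Normalised cluster fluorescence was curve-fitted, giving apparent KD as the per-design median over clusters.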

[1] = Eterna round: R95, input ligand: FMN 200 uM
[2] = Eterna round: R95, input ligand: microRNA oligo, concentration not stated
[3] = Eterna round: R95, input ligand: none
[4] = input ligand: microRNA oligo, concentration not stated

Sequence | apparent KD of MS2 coat protein [1] [µM] | apparent KD of MS2 coat protein [2] [µM] | apparent KD of MS2 coat protein [3] [µM] | apparent KD of MS2 coat protein (input ligand: FMN 200 uM) [µM] | apparent KD of MS2 coat protein (input ligand: none) [µM] | apparent KD of MS2 coat protein [4] [µM]
UGCUAGUCAGGAUAUACGAACAUGUCAAAAGACGUGAAGGGACAUGAGGAUCACCCAUGUAGAAGGGACUAGCA [salish99_ex2_r3_005] (puzzle: Exclusion 2) | 0.158 | 0.0271 | 0.0239 |  |  | 
UGGCUACAUGAGGAUCACCCAUGUCAGGAUAUGCCGUUAAAUUAACAUCAACAUACGGGUAGAAGGGACAGCGU [1st #6] (Eterna round: R97, puzzle: Exclusion 1) |  |  |  | 0.0435 | 0.0417 | 
UGGCUACAUGAGGAUCACCCAUGUCAGGAUAUGCCGUUAAAUUGACAUCAACGUACGGGUAGAAGGGACUGCGU [1st #8] (Eterna round: R97, puzzle: Exclusion 1) |  |  |  | 0.0432 | 0.0456 | 
UGGUAACAUGAGGAUCACCCAUGUCAGGAUAUCAGUAAGAAGAGAUUAGAUUAGAAUAUGAGAAGGGACUAUAG [Excluse me! 2 - Jieux - Exclusion 1] (puzzle: Exclusion 1) | 0.0301 | 0.0403 | 0.0378 |  |  | 
UGGUAACAUGAGGAUCACCCAUGUCAGGAUAUCAGUAAGAAUAGAUUAGAUUAGAAUAUGAGAAGGGACUAUAG [Excluse me! 3 - Jieux - Exclusion 1] (puzzle: Exclusion 1) | 0.0385 | 0.0389 | 0.0478 |  |  | 
UGGUGGAAGCAGGAUAUGCUAGAAGUGUAGUUUGCAGAAGGGCUAACAUGAGGAUCACCCAUGUAAGAGGUGUU [JR_E6_Sub053] (puzzle: Exclusion 6) | 0.0942 | 0.211 | 0.29 |  |  | 
UGUACUAACACGAAAGUGUUAGUACAAUAAGCUUGUGUUACAUGAGGAUCACCCAUGUCCUCAUAAGCUCGUCUUAU [Mat - Sensor v3 - Turn-off var 2 - D51] (puzzle: Sensor v3, turn-off variant 2) | 0.0882 | 0.0523 | 0.0992 |  |  | 
UGUCAGAUGGUAGGAUAUCCAUAUCGAGUGUCCCUUUCCUAACAUGAGGAUCACCCAUGUCGGUGGGAGAAGGGCCGUAUGGUG [salish99_ExNG02_R04_034] (Eterna round: R96, puzzle: Exclusion NG 2) |  |  |  | 0.0125 | 0.0141 | 0.0115
UGUCAGAUGGUAGGAUAUUCAUAUCGAGUGACCCUUUCAUAACAUGAGGAUCACCCAUGUCGGUGGGAGAAGGGCCGUAUGGUG [salish99_ExNG02_R04_030] (Eterna round: R96, puzzle: Exclusion NG 2) |  |  |  |  |  | 0.0227
UGUGUCUCAGGAGGAUAUCUCUCGGUUGCCGUUAGAGAAGGCUUGAAACAUGAGGAUCACCCAUGUAAAUGGCCCGUCCUCCAA [Lalecetege] (Eterna round: R96, puzzle: Exclusion NG 1) |  |  |  | 0.0122 | 0.0141 | 0.0113
UGUGUGUUUGUGAGGAUAUUGUGUGUGAAAGCGCGCGAGAAGGCACAUGAGGAUCACCCAUGUAAGGGCGCGCG [-26, -24 kcal, A 23%, 6bis-6] (Eterna round: R97, puzzle: Brourd's mod of Exclusion 4) |  |  |  | 0.0202 | 0.023 | 
UGUGUUUUUGUGAGGAUAUACUGUUUGUUUUGUUUGUAGAAGGUACAUGAGGAUCACCCAUGUUGUGUUUGGUU [JR_BME4_Sub032] (puzzle: Brourd's mod of Exclusion 4) |  | 0.0309 |  |  |  | 
UGUUGUCGCGCAGGAUAUGAGGAUCACCCAUAUCAGGAUAUCGAAAGAGAAUUUCUGAGGAUCACCCAGAAGGGCGGGACAACU [pwkr exNG2 2xF5 2xFMN.34] (Eterna round: R96, puzzle: Exclusion NG 2) |  |  |  | 0.21 | 0.0429 | 0.0356
UGUUGUCGCGUAGGAUAUGUAUGAGGAUCACCCAUUAAUAAAUUUUAACCACGAGGAUCACCCGUGUAGAAGGACGGGACAACA [pwkr exNG2 2xF5 1xFMN.16] (Eterna round: R96, puzzle: Exclusion NG 2) |  |  |  | 0.0379 | 0.0306 | 0.0181
UGUUGUUACGUAGGAUAUUGCCAACAGGCAGUAGGAUAUGCGAAAGCAGAAGGACCGCCAACAGGCGAGAAGGACGGGUUAACA [pwkr exNG2 2xF7 2xFMN.11] (Eterna round: R96, puzzle: Exclusion NG 2) |  |  |  | 0.286 | 0.389 | 0.0315
UGUUUACAUGAGGAUCACCCAUGUCAGGAUAUGAUAUAUAUAUGGAAACAUAUAUAUAUCAGAAGGGACUAGUG [Jieuxxlusion 1 - Jieux - Exclusion 1] (Eterna round: R97, puzzle: Exclusion 1) |  |  |  | 0.156 | 0.0877 | 

Sequence | apparent KD of MS2 coat protein [1] [µM] | apparent KD of MS2 coat protein [2] [µM] | apparent KD of MS2 coat protein [3] [µM] | apparent KD of MS2 coat protein (input ligand: FMN 200 uM) [µM] | apparent KD of MS2 coat protein (input ligand: none) [µM] | apparent KD of MS2 coat protein [4] [µM]
UGUUUAUAUGAAGGAUAUACUUAACAUGAGGAUCACCCAUGUGGUGUUGUGAGUGAGUGAGUUUAGUAGAAGGUCAAUUAUUUU [JMF's solution 31] (Eterna round: R96, puzzle: Exclusion NG 2) |  |  |  |  |  | 0.303
UUAAAGUCAGGAUAUACAUGAGGAUCACCCAUGUAAAAUUUUAAUUUAAUUUGAAGGUGUAGAAGGGACAAAUU [Ex3 #36] (Eterna round: R97, puzzle: Exclusion 3) |  |  |  | 0.0256 | 0.026 | 
UUAAAGUCAGGAUAUACAUGAGGAUCACCCAUGUAAAAUUUUAAUUUAAUUUUAAGGUGUAGAAGGGACAAUUU [Ex3 #2] (Eterna round: R97, puzzle: Exclusion 3) |  |  |  | 0.0298 | 0.0311 | 
UUAAAUCAUGUAGGAUAUGCAUAGCGAAGCUAUGCAGAAGGACAUGAGGAUCACCCAUGUGCUUGCGUCCGCGUACGGAUGCUA [Mat - Exclusion NG 1 - Mod of JL - D67] (Eterna round: R96, puzzle: Exclusion NG 1) |  |  |  | 0.423 | 0.123 | 0.0844
UUAAAUCAUGUAGGAUAUGCGUGGCGAAGCUAUGCAGAAGGACAUGAGGAUCACCCAUGUGCUAGCGUCCGCGUACGGAUGCAA [JL ENG1 1.21] (Eterna round: R96, puzzle: Exclusion NG 1) |  |  |  | 0.131 | 0.062 | 0.0571
UUAAAUCAUGUAGGAUAUGCUUUGCAAAGCGAAGCAGAAGGACAUGAGGAUCACCCAUGUGCUAGCGUCCGAGAACGGAUGCAA [Mat - Exclusion NG 1 - Mod of JL - D65] (Eterna round: R96, puzzle: Exclusion NG 1) |  |  |  | 0.501 | 0.0615 | 0.0606
UUAAUGAUUGUGAGGAUAUUUGAUAGAUAGAUAUUAGAGAAGGUACAUGAGGAUCACCCAUGUGUGAUUAGAGA [Brourd's EX4 #70] (Eterna round: R97, puzzle: Brourd's mod of Exclusion 4) |  |  |  | 0.164 | 0.0754 | 
UUAAUGGCUGUGAGGAUAUCGGAUAGAUAGAUAUUCGAGAAGGCACAUGAGGAUCACCCAUGUGUGAUUAGAGA [Brourd's EX4 #63] (Eterna round: R97, puzzle: Brourd's mod of Exclusion 4) |  |  |  | 0.13 | 0.026 | 
UUAAUUAAUUAAGCGCAAGAUCACAUGAGGAUCACCCAUGUAUAGGAUAUCAGCUCGUUUAGAGCUGAGAAGGAUACAUAGCGC [ExNG3/2-A2] (Eterna round: R96, puzzle: Exclusion NG 3) |  |  |  | 0.738 | 0.172 | 0.155
UUAAUUAAUUAAGGCUGAAGAUCACAUGAGGAUCACCCAUGUAAGGAUAUCAGCUCGUGUAGAGCUGAGAAGGUACAUGCAGCC [ExNG3/18-B3] (Eterna round: R96, puzzle: Exclusion NG 3) |  |  |  | 0.0506 | 0.336 | 0.345
UUAAUUAAUUAAUUAUAAGAUCAACAUGAGGAUCACCCAUGUGAGGAUAUCAGCUCGAUUAGAGCUGAGAAGGCACAAAUAAUU [ExNG3/16-B1] (Eterna round: R96, puzzle: Exclusion NG 3) |  |  |  | 0.147 | 0.044 | 0.0536
UUAAUUAAUUAAUUAUAAGAUCAACAUGAGGAUCACCCAUGUGAGGAUAUCAGCUCGUGUAGAGCUGAGAAGGCACAAAUAAUU [ExNG3/16-B3] (Eterna round: R96, puzzle: Exclusion NG 3) |  |  |  | 0.0864 | 0.0515 | 0.0279
UUACCAUGCCGCCUAAUAGCUUUUUGCUCGUCUUAUAUUACAUGAGGAUCACCCAUGUAAAACAUGUGGCGUGACCU [JL ViennaUCT Maridi mod 1] (puzzle: Sensor v3, turn-off variant 2) | 0.0798 | 0.112 | 0.0873 |  |  | 
UUAGAUAGGUCAGGAUAUCGAUGAUUGAAUAGUAUGAUUUACAUGAGGAUCACCCAUGUUAAAUACGAGAAGGGACGUUAGAUU [JR_ExcNG2_Sub021] (Eterna round: R96, puzzle: Exclusion NG 2) |  |  |  | 0.0179 | 0.0213 | 0.0179
UUAGAUUGAGGAUAUUUGGAUCCGUACAUGAGGAUCACCCAUGUGUGUAGCACAUUCAACGGAGAAGGCGGUUUCU [Eternabot (L1) Solution 73] (Eterna round: R97, puzzle: Exclusion 5) |  |  |  | 0.143 | 0.256 | 
UUAGGCUGAAGAUCAAUUAAUUAACAUGAGGAUCACCCAUGUAAGGAUAUCAGCUCGUUUAGAGCUGAGAAGGUACAUGCAGCC [ExNG3/18-A2] (Eterna round: R96, puzzle: Exclusion NG 3) |  |  |  | 0.351 | 0.118 | 0.121
